Among the data in paper PMC11286415 are stoichiometry N and Kd values, retold here.

For series [1], the target named is Trypanosoma brucei multi-aminoacyl-tRNA synthetase complex (MSC)-associated protein 3 (MCP3), wild type (Trypanosoma brucei). Nature of the series: SEC-MALS; 300 ug protein at 3 mg/mL in 100 uL; 30 mM Tris-HCl pH 8.0, 100 mM NaCl, 5 mM MgCl2, 2 mM DTT; incubated at 27°C for 1 h; Superdex 200 Increase 10/300 GL, 0.5 mL/min; no tRNA.
Series [2] shares this target. Description: ITC; dimer to monomers: 250 uM WT MCP3 in the syringe injected into buffer in the cell (50 mM glycylglycine pH 8.0, 300 mM NaCl, 2 mM DTE); 13 injections of 1 uL, 25°C. In general terms: In ITC the heat of successive injections is recorded.
For series [3], the system named is WT MCP3 (Trypanosoma brucei). Nature of the series: ITC. As to conditions: 1 mM Mg2+; unmodified in vitro transcript; ITC: 20 mM MOPS pH 7.8, 100 mM NaCl, 2 mM DTE, 1 mM MgCl2, 25 C, 30 uM protein in cell, 300 uM tRNA in syringe; SEC-MALS: preincubation 27 C, run at 4 C …. (SEC sorts molecules by how far they enter the pores of the column.)
In series [4] the test system is ΔN MCP3 (Trypanosoma brucei). Nature of the series: ITC. The settings on record: unmodified in vitro transcript; ITC: 20 mM MOPS pH 7.8, 100 mM NaCl, 2 mM DTE, 1 mM MgCl2, 25 C, 30 uM protein in cell, 300 uM tRNA in syringe; SEC-MALS: preincubation 27 C, run at 4 C ….

With “Trypanosoma brucei multi-aminoacyl-tRNA synthetase complex (MSC)-associated protein 3 (MCP3), wild type (enzyme)”, the stoichiometry N in series [1] was found to be 2. The substance also came in with a Kd in series [2] of 2.6 µM. tRNAAla: the Kd in series [3] was 1.12 µM. In other words, the single-digit micromolar range.

Take tRNAPro: the figures for the Kd in series [4] and in series [3] were 0.809 µM and 1.05 µM, respectively.

A word on the stoichiometry N: it is the number of molecules, sites or subunits per partner or assembly. As usually defined, the Kd is the free concentration of one partner at which half of the binding sites on the other are occupied at equilibrium, for simple one-to-one binding. Read a high Kd as weaker binding.
